# Assay results taken from IntAct's records for PubMed 28436967.
# B1: Katanin p60 ATPase-containing subunit A1 (Mus musculus), Q9WV86 (parent)
# chain: MSLQMIVENVKLAREYALLGNYDSAMVYYQGVLDQMNKYLYSVKDTHLRQKWQQVWQEINVEAKQVKDIMKTLESFKLDITSLQAAQHELPAAEGEVWSLPVPVERRPLPGPRKRQSSQHSDPKPHSNRPSTVVRAHRPSPQNLHNDRGKAVRSREKKEQSKGREEKNKLPAAVTEPEANKFDGTGYDKDLVEALERDIISQNPNVRWYDIADLVEAKKLLQEAVVLPMWMPEFFKGIRRPWKGVLMVGPPGTGKTLLAKAVATECKTTFFNVSSSTLTSKYRGESEKLVRLLFEMARFYSPATIFIDEIDSICSRRGTSEEHEASRRMKAELLVQMDGVGGASENDDPSKMVMVLAATNFPWDIDEALRRRLEKRIYIPLPSAKGREELLRISLRELELADDVNLASIAENMEGYSGADITNVCRDASLMAMRRRIEGLTPEEIRNLSREAMHMPTTMEDFEMALKKISKSVSAADIERYEKWIVEFGSC
# Variants of: B1
# Settings: with ktnb1_mouse Katnb1, Q8BG40
# Sequence of ktnb1_mouse Katnb1, Q8BG40 (Q8BG40 whole entry): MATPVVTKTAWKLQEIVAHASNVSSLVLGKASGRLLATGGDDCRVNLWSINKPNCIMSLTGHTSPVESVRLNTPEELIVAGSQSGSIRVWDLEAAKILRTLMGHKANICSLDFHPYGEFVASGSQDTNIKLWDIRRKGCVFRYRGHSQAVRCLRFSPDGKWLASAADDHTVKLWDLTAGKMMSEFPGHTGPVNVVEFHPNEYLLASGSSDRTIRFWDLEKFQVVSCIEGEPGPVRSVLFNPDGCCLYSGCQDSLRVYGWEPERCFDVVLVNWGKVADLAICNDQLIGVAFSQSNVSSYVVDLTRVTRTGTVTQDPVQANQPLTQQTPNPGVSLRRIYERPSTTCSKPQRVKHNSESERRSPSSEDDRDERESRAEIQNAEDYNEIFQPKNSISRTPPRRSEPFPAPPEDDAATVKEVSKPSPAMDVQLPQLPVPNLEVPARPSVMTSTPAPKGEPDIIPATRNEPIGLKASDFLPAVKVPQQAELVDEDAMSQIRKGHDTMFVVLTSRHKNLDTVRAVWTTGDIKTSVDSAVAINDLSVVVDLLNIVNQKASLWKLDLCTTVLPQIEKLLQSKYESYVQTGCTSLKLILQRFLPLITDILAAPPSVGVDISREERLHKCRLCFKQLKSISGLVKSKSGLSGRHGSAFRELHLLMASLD
row,Variant,effect of a mutation on the interaction
1,L19A,with no effect
2,L18A,with no effect
